Results taken from the DeepSol protein solubility set.

Test: soluble on expression in E. coli; label from the status in PepcDB or PDB records

Question: With “MTHDNKLQVEAIKRGTVIDAIPAQIGFKLLSLFKLTETDQRITIGLNLPSGEMGRKDLIKIENTFLSEDQVDQLALYAPQATVNRIDNYEVVGKSRPSLPERIDNVLVCPNSNCISHAEPVSSSFAVRKRANDIALKCKYCEKEFSHNVVLAN” as the sequence, how does the “soluble on expression in E. coli” value read?
Answer: soluble

Question: With “MTHPLYIFDLDETLINGDCAMIWNEFLVDKGIVTTPDFLEEDKRLMTLYSRGLMDMEDYLIFAMSPLKNIPTDQVEILIEECVNERILPLLFPEAKILIHQLKADNVDMIVISASVSFLVKIVAKNIGIKHAIGIDLKEKNGCYTRHILGVPSYREGKVSRLTEWLNGGDKTYSALHFYTDSINDLPLCLYADHTYLVNPCEQLAVYSKKKNWPILAWGSQ” as the sequence, how does the “soluble on expression in E. coli” value read?
Answer: not soluble

Question: Which “soluble on expression in E. coli” value does the source give for “MTHTVHLHLEETDNLALQRLCGSFDNNLDLLAKALDIHISRRFEHFTFNGAFAHAGKRALLKLLETAQTRDLNDGDIRLAAVEAQTEDAGHQEKNHDHAYYFRTKRGSIGGRTPRQNGYIRALLNHDIVFGLGPAGTGKTYLAVAAAVDAMEKHQVERIILVRPAVEAGEKLGFLPGDLTQKVDPYLRPLYDALYDLMGFDRVTKLIEKGLIEIAPLAYMRGRTLNGAYIILDEAQNTTPEQMKMFLTRIGFGAKAVITGDTSQIDLPKNIKSGLKDAREKLHNVEGLYFHTFTGEDVVRHPLVQKIVEAYESAEHD” here?
Answer: not soluble

Question: For “MTIATSVAGSSENFAELFNESLSHKEMRVGEVITAEIIRVDYNFVVVNAGLKSESYIPIEEFKNDRGEIEAREGDFVSVAIEALENGFGETRLSRDKAKRLNAWYELEEAMEKGKIVTGMVNGKVKGGLTATINGIRAFLPGSLVDIRPVKDMTPYENKEMEFKVIKLDRKRNNVVVSRRAVLEETQGADRDELLASLQDGAVVQGIVKNITDYGAFVDLGGIDGLLHITDLAWRRVKHPTEVINVGDEVTAKVLKFDQEKNRVSLGLKQLTEDPWIGLSRRYPQGTRIFGKVTNMTDYGAFVEIEQGIEGLVHVSEMDWTNKNVYPSKIVQLGDEVEVMILEIDEDRRRISLGMKQCRPNPWEEFSLSHEKGDKVTGQIKSITDFGLFIGLPGNIDGLVHLSDLSWNQPGEKAISEFKKGDEVEAVVLSIDVEKERISLGIKQLEGDPFNIYVASHDKNSIVKGTVKSVDAKGAVIALTDEVEGYLRASEFSRDKIEDIRSRVNEGDEIEAMIINIDRKNRSISLSVKARIQDEEDKAVKSLASVSNPASAGTTNLGALLKAKIDSKSSEELEHHHHHH”, which “soluble on expression in E. coli” value is on record?
Answer: soluble

Question: Which “soluble on expression in E. coli” value does the source give for “MTIDRVCTIGPASNNKETLAKLINNGMKIVRLNLSHGTHESHKDIIRLVKSLDDSIKILGDVQGPKIRLGEIKGEQITLQAGDSFMLRTQPVTGSSTEASVDYEGIANDVKVGSRILMNDGEVELIVEKVSTDKIETKVKTGGNISSHKGVNLPGAIVSLPAITEKDKKDIQFLLEEDVDFIACSFVRKPSHIKEIRDFIQQYKETSPNLIAKIETMEAIENFQDICKEADGIMIARGDLGVELPYQFIPLLQKMMIQECNRTNTYVITATQMLQSMVDHSIPTRAEVTDVFQAVLDGTNAVMLSAESASGEHPVESVSTLRLVSEFAEHVKKDGPFVMKDVLELLHKSLDE” here?
Answer: soluble

Question: Which “soluble on expression in E. coli” value does the source give for “MTIEKPKISVAFIALGNFCRSPMAEAIFKHEVEKANLENRFNKIDSFGTSNYHVGESPDHRTVSICKQHGVKINHKGKQIKTKHFDEYDYIIGMDESNINNLKKIQPEGSKAKVCLFGDWNTNDGTVQTIIEDPWYGDIQDFEYNFKQITYFSKQFLKKEL” here?
Answer: soluble

Question: Which “soluble on expression in E. coli” value does the source give for “MTIKLINIGFGNIISANRMISIVSPESAPIKRMIQDARDRGMLIDATYGRRTRAVVVMDSDHIILSAVQPETVAHRLSVKEEIMDEGQG” here?
Answer: not soluble

Question: With “MTIPLWWQNGVIYQIYPKSFQDTTGSGTGDLRGVTQRLDYLQRLGVDAIWLTPFYISPQVDNGYDVANYTAIDPTYGTLDDFDELVAQAKARGIRIILDMVFNHTSTQHAWFREALNKESPYRQFYIWRDGTPDVCPNNWQSKFGGSAWRWHSQSEQYYLHLFAPEQADLNWENPAVRAELKKVCEFWADRGVDGLRLDVVNLIAKDQNFPDDPTGDGRRFYTDGPRAHTFLREMNRDVFTPRNLMTVGEMSSTTLENCQQYAALSGDELSMTFNFHHLKVDYPNGEKWTLAKPDYVALKALFRHWQQGMHNVAWNALFWCNHDQPRIVSRFGDEGEYRVPAAKMLAMALHGMQGTPYIYQGEEIGMTNPHFTRITDYRDVESHNMFAALRAAGRDPDELLAILASKSRDNSRTPMQWDNGKNAGFTQGEPWISLCDNYTEVNVEAALRDENSVFYTYQKLIALRKTQPVLIWGDYQDLLPDSPSVWCYRRQWQGQILLVVANLSNQCQEWHPPHIKGQWQALLHNYGEVASQPAAMTLRPFEAIWWLQR” as the sequence, how does the “soluble on expression in E. coli” value read?
Answer: not soluble

Question: Which “soluble on expression in E. coli” value does the source give for “MTIQQSVTHQLLIPITFEGKEHTTITLQRPKTKDLQAIDKKEGVEQTIAMIARLSGWPHEAISELDINDLSSIGEILESFIKRRDTSTGKPPQN” here?
Answer: soluble

Question: For “MTISTNHSLASRQQLKQGKPFSILVLGTDVGALGRGTSYAGNTDTLELITVNPKKHTLTTTAIPRDTLVRVETKNKIEYTKINAAYALGGPREIKKQVHELLDVPVDYYALVNMGGLEKTVNAVGGVTVNNPFAFKYEGHTYPKGKQYLNGSEALGYSRMRYDDPDNDYGRQKRGQQVLLSALTKVNKSKNIMQMNSLLDTAKDNVRTDLPLDDLMTLYKNYHGALADTQSDHLQGKNATIDNFSFQIAPNWEMQRLSDNTRQALGLTKVKVNNIQTKMNDMQTNWNGYNNVNYVLPNNAQVYIPVNKVLEHHHHHH”, which “soluble on expression in E. coli” value is on record?
Answer: soluble

Question: Which “soluble on expression in E. coli” value does the source give for “MTITPPTPNGDLHIGHIAGPFLAADVFTRVQRQRGHDCVLVSYSDDYQSYMLRKGLEQGVDPVVLAHRNSDRIEASLAAINIKPDNWMRPHNNPWFAEAVGEVFTALRDAGAIEFRDSSEPYCPDCAVWGYEAFARGQCNYCGAESDASQCENCAQAPDAELMSGLHCKLCQQPSQWKTAHRAFLKLADFKPQLGNRLLGQAWRKPLDSWLRDTLEHLHDWGVTRPGDGGLDLQADGACRVHTWFMGLAGYMAAFREYADSIGRPELFGQYWQSGQGTLVHFLGFDCVFSHAIVYPAQLSVLQGIKVRQRFVPNQFLKLDGLNLSTSRNHAIWVGDLARQACADSARLYLASIAPEDSEGDFRMTHFFEWREELFNGF” here?
Answer: not soluble

Question: With “MTKDQNGTWEMESNENFEGYMKALDIDFATRKIAVRLTQTKIIVQDGDNFKTKTNSTFRNYDLDFTVGVEFDEHTKGLDGRNVKTLVTWEGNTLVCVQKGEKENRGWKQWVEGDKLYLELTCGDQVCRQVFKKK” as the sequence, how does the “soluble on expression in E. coli” value read?
Answer: soluble

Question: With “MTKEERISRATELFKSGYNCSQSVVAAFADMYGFTEEQALRMAASFGGGIGRMRETCGAACGMFLLAGLEKGAIDGADREGKAANYALVQELAAEFKKRNGSLNCGELLGLKKKAPVSSEPEARTEQYYAKRPCSKMVEEAARIWAEYLEKEKK” as the sequence, how does the “soluble on expression in E. coli” value read?
Answer: not soluble

Question: Which “soluble on expression in E. coli” value does the source give for “MTKETTQHRSGERIARFADIEVLSYRADLFGTLTPKQRMLCYHLSEAALRGRDITTIQNCRYNLWVRSLMERIYTHLSKSERTDDFALLEEYLFCIWFANGIHHHYSGAKFIARFSPGFLRAALREAGVELEPEEQVLLERVLYDTDFLPKQTEQSGEEDIIKASSVNFYAPGITRAEAESHYKNLIEALPENEKSCPPSFGLNTRLIRSTSGELKDEVCCIDGLYGPAIEAVVASLEAAIPYTENEEQAACIRLLCDYYRTGDIRLYDRFCIRWVENNRTRIDFINGFTEVYADPIGIHGSWEGLVHMQDEEAGRRTRIISEHAGWFEAHSPIDARFRKKNPHGISATVVNVLTIAGDSYPATPIGINLPNADWIRAEHGSKSVTIDNITDAYNHAARGTGLYEEFIPDEEVRRHVELHADLTDSLHTDLHECLGHGSGQLLPGVPGDALGEHASTLEETRADLFALYFLADPKMIELGLLTDPDAYKANYYKYMLNGLMTQLVRIKRGEEIEEAHMRNRALIARYVLEHAERPGAMSLVCEEGKTALVIKDYEAVRAIIAGLLTEVQRIKSEGDYTAGKALVERYAVHVDPLLHEEVLTRYAKLDIAPYKGFVNPRLRPVYNSEGRLTDATIEYTEGYAEQMLRYSAEYSFLPTDSPLLQEARRLRSHLRRAMDGVLSASMREKGLHYGINFGVTREHLLRLARTADASAPLADYLWRRDVRETKILATMIFPAEELTHEQATRLLREADNVELREQLTANLLERMPEAIRSIGRWIESKETTPDMMTGVLTLAARLFTRGIFPEDVPAEKLLTLAILHLSDEEQKAELRRASALLLKRYGRGSAERTKKVLCLLPESSQDTAPVLYELCEDIRFELDFYPKDE” here?
Answer: not soluble
